Results as given in the supplement of paper PMC10065799, “High-throughput profiling of sequence recognition by tyrosine kinases and SH2 domains using bacterial peptide display” (eLife, 2023).
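Also: 11-residue human phosphosite peptides and single-mutation variants displayed on the E. coli surface, counted by deep sequencing, each peptide's frequency after selection divided by its frequency in the unselected input library; frequency after pTyr selection over input frequency; kinase dosed for 20-30% of maximal phosphorylation in three min.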

These sequences were tested against MERTK (UniProt Q12866) (assay: phosphorylation enrichment, bacterial display (enrichment ratio); higher = better substrate or ligand; peptides without Tyr show the background).
Sequence of MERTK (Q12866 whole entry, looked up): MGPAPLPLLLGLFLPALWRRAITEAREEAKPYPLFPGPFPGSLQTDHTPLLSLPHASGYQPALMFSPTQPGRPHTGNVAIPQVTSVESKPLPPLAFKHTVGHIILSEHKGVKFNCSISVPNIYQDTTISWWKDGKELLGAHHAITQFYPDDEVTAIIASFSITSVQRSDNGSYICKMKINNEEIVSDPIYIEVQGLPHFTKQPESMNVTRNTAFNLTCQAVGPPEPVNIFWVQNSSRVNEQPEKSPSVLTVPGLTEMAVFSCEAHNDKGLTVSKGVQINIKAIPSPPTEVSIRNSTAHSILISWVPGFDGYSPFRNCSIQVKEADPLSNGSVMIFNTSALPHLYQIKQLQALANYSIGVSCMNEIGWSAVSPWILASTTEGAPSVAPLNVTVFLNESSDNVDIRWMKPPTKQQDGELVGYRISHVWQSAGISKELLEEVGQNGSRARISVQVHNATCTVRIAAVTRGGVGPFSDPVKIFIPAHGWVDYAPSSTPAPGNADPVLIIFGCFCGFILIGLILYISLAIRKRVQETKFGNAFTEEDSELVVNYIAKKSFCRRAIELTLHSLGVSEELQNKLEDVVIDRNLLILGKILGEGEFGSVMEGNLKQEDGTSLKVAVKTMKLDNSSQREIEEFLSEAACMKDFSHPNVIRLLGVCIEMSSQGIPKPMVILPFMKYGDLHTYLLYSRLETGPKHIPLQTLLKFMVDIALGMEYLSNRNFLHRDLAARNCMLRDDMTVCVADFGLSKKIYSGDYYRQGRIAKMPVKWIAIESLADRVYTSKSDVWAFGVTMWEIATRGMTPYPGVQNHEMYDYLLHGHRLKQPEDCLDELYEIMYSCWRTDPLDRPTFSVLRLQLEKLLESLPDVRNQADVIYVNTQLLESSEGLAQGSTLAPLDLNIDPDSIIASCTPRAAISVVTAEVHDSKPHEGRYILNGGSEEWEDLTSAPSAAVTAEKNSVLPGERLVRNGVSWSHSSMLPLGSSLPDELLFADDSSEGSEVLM
KLGDVYVNDAF [PGK1_Y161] showed a phosphorylation enrichment of 0.395. EFFDGYWEFSV [ITGA2B_Y265_G267E_YF] was tested, and the phosphorylation enrichment was 0.631. Work on LKFAIYFEARE [LAMA2_Y1258_YF] yielded a phosphorylation enrichment of 0.845. NRLTDYYELLL [BBS10_Y536_P539L] was tested, and the phosphorylation enrichment was 3.04. WDLSEYSYKDP [ITGA3_Y237] gave a phosphorylation enrichment of 0.416. Work on CTTIHYNFMCS [TP53_Y234_N239S_YF] yielded a phosphorylation enrichment of 0.5. Sequence HGDDDYDDPEL [CLNK_Y69_S65G] has a phosphorylation enrichment of 0.667. For MSPPGYKLVNG [GJA1_Y286_T290N], the phosphorylation enrichment was 0.412. In the case of PLDVEYFTLQI [TP53_Y327_G325V], the phosphorylation enrichment is reported as 0.55. DENRFYTRAAS [RPS19_Y54_W52R] was tested, and the phosphorylation enrichment was 0.45. For SVVVPYEPHEV [TP53_Y220_P223H], the phosphorylation enrichment was 0.493. LSSVSYVGCSL [ADGRD1_Y571_I569V] showed a phosphorylation enrichment of 1.05. Sequence LLVVLNKYRCY [PSEN1_Y154_Y154N] has a phosphorylation enrichment of 0.456. In the case of ALETLYKKAVK [CC2D2A_Y381_E376A], the phosphorylation enrichment is reported as 0.338. QITQVYGFFHE [PPP2CA_Y127_D131H_YF] gave a phosphorylation enrichment of 5.31. LEQQKYTVTVD [IKBKB_Y199] showed a phosphorylation enrichment of 0.71. In the case of LTERSYSFVTT [ACTA1_Y200_G199S], the phosphorylation enrichment is reported as 2.56. Sequence EDKSIYRRGAR [PRKCI_Y125] has a phosphorylation enrichment of 0.621. FISLIYTNFEV [GSTP1_Y109_A114V_YF] showed a phosphorylation enrichment of 4.4. For PDDPNYSLVDD [PSTPIP2_Y323], the phosphorylation enrichment was 0.662. PVQAAYQNVVA [HBB_Y131_K133N] showed a phosphorylation enrichment of 0.591. With CTTVHYNYMCN [TP53_Y234_I232V] the phosphorylation enrichment was 0.469. With QMVRMYASSYM [AVPR2_Y124_G122R] the phosphorylation enrichment was 0.659. Sequence FAELVYTSFWH [ASS1_Y322_G324S] has a phosphorylation enrichment of 7.38. APQFTYTQGGQ [FLNA_Y1763_A1764T_YF] was tested, and the phosphorylation enrichment was 0.367. Work on FASALYRQRRS [FGF11_Y162_YF] yielded a phosphorylation enrichment of 0.565. For EKSREYHRLYE [PIK3R1_Y463_D464H], the phosphorylation enrichment was 0.525. With RRVLVYGGRGA [QDPR_Y16] the phosphorylation enrichment was 0.549. For ACLSLYGGFVE [MVD_Y164_R161L], the phosphorylation enrichment was 0.607. SENFTYIWWLN [PSG4_Y271_K267E_YF] showed a phosphorylation enrichment of 0.404. CTTIHQNYMCN [TP53_Y234_Y234Q] showed a phosphorylation enrichment of 0.503. KWHREYNSKYV [RICTOR_Y835] showed a phosphorylation enrichment of 0.339. For SSEYHCVGGFY [CTSC_Y347_Y347C], the phosphorylation enrichment was 0.775.

Each sequence was assayed against Jak2 (UniProt O60674) in the same assay as above.
Sequence of Jak2 (O60674 whole entry, looked up): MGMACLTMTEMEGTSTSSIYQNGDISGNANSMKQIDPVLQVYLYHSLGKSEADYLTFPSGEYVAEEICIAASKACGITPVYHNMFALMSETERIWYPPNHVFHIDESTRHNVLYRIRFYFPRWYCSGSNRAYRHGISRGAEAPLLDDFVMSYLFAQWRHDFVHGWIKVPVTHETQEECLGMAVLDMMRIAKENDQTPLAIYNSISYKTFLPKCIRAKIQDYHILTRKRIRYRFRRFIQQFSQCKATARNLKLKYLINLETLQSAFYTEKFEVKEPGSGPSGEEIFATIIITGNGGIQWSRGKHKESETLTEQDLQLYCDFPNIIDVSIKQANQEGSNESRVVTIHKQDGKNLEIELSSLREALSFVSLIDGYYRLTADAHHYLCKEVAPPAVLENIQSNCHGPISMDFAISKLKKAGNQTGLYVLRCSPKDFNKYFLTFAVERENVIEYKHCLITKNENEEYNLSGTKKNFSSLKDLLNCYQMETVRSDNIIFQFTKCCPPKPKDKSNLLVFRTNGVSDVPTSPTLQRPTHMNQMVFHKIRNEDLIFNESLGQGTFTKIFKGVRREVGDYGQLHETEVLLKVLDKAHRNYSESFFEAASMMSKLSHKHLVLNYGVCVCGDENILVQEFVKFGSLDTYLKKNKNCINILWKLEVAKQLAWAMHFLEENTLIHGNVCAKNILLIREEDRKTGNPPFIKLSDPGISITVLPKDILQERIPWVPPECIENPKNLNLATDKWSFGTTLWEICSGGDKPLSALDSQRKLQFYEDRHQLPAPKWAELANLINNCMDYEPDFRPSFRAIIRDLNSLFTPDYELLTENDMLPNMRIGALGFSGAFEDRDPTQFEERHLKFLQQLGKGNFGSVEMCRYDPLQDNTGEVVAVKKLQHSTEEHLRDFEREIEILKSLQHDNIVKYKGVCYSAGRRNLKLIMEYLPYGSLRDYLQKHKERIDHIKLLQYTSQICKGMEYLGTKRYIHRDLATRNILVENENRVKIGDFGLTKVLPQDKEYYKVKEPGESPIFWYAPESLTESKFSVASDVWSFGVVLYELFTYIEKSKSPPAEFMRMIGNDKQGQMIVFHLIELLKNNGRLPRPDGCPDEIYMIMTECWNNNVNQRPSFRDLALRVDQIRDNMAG
Sequence KLGDVYVNDAF [PGK1_Y161] has a phosphorylation enrichment of 0.801. In the case of EFFDGYWEFSV [ITGA2B_Y265_G267E_YF], the phosphorylation enrichment is reported as 3.11. LKFAIYFEARE [LAMA2_Y1258_YF] showed a phosphorylation enrichment of 1.1. In the case of NRLTDYYELLL [BBS10_Y536_P539L], the phosphorylation enrichment is reported as 1.68. WDLSEYSYKDP [ITGA3_Y237] was tested, and the phosphorylation enrichment was 0.997. For CTTIHYNFMCS [TP53_Y234_N239S_YF], the phosphorylation enrichment was 0.823. HGDDDYDDPEL [CLNK_Y69_S65G] showed a phosphorylation enrichment of 1.39. MSPPGYKLVNG [GJA1_Y286_T290N] gave a phosphorylation enrichment of 0.564. With PLDVEYFTLQI [TP53_Y327_G325V] the phosphorylation enrichment was 2.69. For DENRFYTRAAS [RPS19_Y54_W52R], the phosphorylation enrichment was 0.721. In the case of SVVVPYEPHEV [TP53_Y220_P223H], the phosphorylation enrichment is reported as 1.18. LSSVSYVGCSL [ADGRD1_Y571_I569V] showed a phosphorylation enrichment of 1.23. Work on LLVVLNKYRCY [PSEN1_Y154_Y154N] yielded a phosphorylation enrichment of 1.68. Work on ALETLYKKAVK [CC2D2A_Y381_E376A] yielded a phosphorylation enrichment of 0.603. With QITQVYGFFHE [PPP2CA_Y127_D131H_YF] the phosphorylation enrichment was 0.915. LEQQKYTVTVD [IKBKB_Y199] showed a phosphorylation enrichment of 0.954. With LTERSYSFVTT [ACTA1_Y200_G199S] the phosphorylation enrichment was 1.03. Sequence EDKSIYRRGAR [PRKCI_Y125] has a phosphorylation enrichment of 0.614. In the case of FISLIYTNFEV [GSTP1_Y109_A114V_YF], the phosphorylation enrichment is reported as 1.79. PDDPNYSLVDD [PSTPIP2_Y323] was tested, and the phosphorylation enrichment was 1.4. For PVQAAYQNVVA [HBB_Y131_K133N], the phosphorylation enrichment was 0.645. In the case of CTTVHYNYMCN [TP53_Y234_I232V], the phosphorylation enrichment is reported as 0.768. QMVRMYASSYM [AVPR2_Y124_G122R] gave a phosphorylation enrichment of 0.764. FAELVYTSFWH [ASS1_Y322_G324S] gave a phosphorylation enrichment of 2.11. Sequence APQFTYTQGGQ [FLNA_Y1763_A1764T_YF] has a phosphorylation enrichment of 0.552. FASALYRQRRS [FGF11_Y162_YF] gave a phosphorylation enrichment of 0.468. Work on EKSREYHRLYE [PIK3R1_Y463_D464H] yielded a phosphorylation enrichment of 0.637. Work on RRVLVYGGRGA [QDPR_Y16] yielded a phosphorylation enrichment of 0.361. With ACLSLYGGFVE [MVD_Y164_R161L] the phosphorylation enrichment was 1.92. Work on SENFTYIWWLN [PSG4_Y271_K267E_YF] yielded a phosphorylation enrichment of 1.46. Sequence CTTIHQNYMCN [TP53_Y234_Y234Q] has a phosphorylation enrichment of 0.796. For KWHREYNSKYV [RICTOR_Y835], the phosphorylation enrichment was 0.513. In the case of SSEYHCVGGFY [CTSC_Y347_Y347C], the phosphorylation enrichment is reported as 1.37.

Each sequence was assayed on Fer (mouse) in the same assay as above.
In the case of KLGDVYVNDAF [PGK1_Y161], the phosphorylation enrichment is reported as 0.547. EFFDGYWEFSV [ITGA2B_Y265_G267E_YF] gave a phosphorylation enrichment of 0.515. LKFAIYFEARE [LAMA2_Y1258_YF] showed a phosphorylation enrichment of 0.884. Work on NRLTDYYELLL [BBS10_Y536_P539L] yielded a phosphorylation enrichment of 1.98. Work on WDLSEYSYKDP [ITGA3_Y237] yielded a phosphorylation enrichment of 0.449. CTTIHYNFMCS [TP53_Y234_N239S_YF] was tested, and the phosphorylation enrichment was 0.495. HGDDDYDDPEL [CLNK_Y69_S65G] gave a phosphorylation enrichment of 0.717. MSPPGYKLVNG [GJA1_Y286_T290N] gave a phosphorylation enrichment of 0.315. PLDVEYFTLQI [TP53_Y327_G325V] showed a phosphorylation enrichment of 0.578. DENRFYTRAAS [RPS19_Y54_W52R] gave a phosphorylation enrichment of 0.478. SVVVPYEPHEV [TP53_Y220_P223H] showed a phosphorylation enrichment of 1.38. With LSSVSYVGCSL [ADGRD1_Y571_I569V] the phosphorylation enrichment was 0.98. With LLVVLNKYRCY [PSEN1_Y154_Y154N] the phosphorylation enrichment was 0.53. ALETLYKKAVK [CC2D2A_Y381_E376A] was tested, and the phosphorylation enrichment was 0.446. In the case of QITQVYGFFHE [PPP2CA_Y127_D131H_YF], the phosphorylation enrichment is reported as 0.72. LEQQKYTVTVD [IKBKB_Y199] was tested, and the phosphorylation enrichment was 0.674. LTERSYSFVTT [ACTA1_Y200_G199S] gave a phosphorylation enrichment of 2.92. EDKSIYRRGAR [PRKCI_Y125] gave a phosphorylation enrichment of 0.356. Sequence FISLIYTNFEV [GSTP1_Y109_A114V_YF] has a phosphorylation enrichment of 5.37. PDDPNYSLVDD [PSTPIP2_Y323] gave a phosphorylation enrichment of 1.07. PVQAAYQNVVA [HBB_Y131_K133N] showed a phosphorylation enrichment of 0.98. CTTVHYNYMCN [TP53_Y234_I232V] was tested, and the phosphorylation enrichment was 0.77. Sequence QMVRMYASSYM [AVPR2_Y124_G122R] has a phosphorylation enrichment of 0.717. FAELVYTSFWH [ASS1_Y322_G324S] gave a phosphorylation enrichment of 8.86. In the case of APQFTYTQGGQ [FLNA_Y1763_A1764T_YF], the phosphorylation enrichment is reported as 0.423. Sequence FASALYRQRRS [FGF11_Y162_YF] has a phosphorylation enrichment of 0.991. In the case of EKSREYHRLYE [PIK3R1_Y463_D464H], the phosphorylation enrichment is reported as 0.432. RRVLVYGGRGA [QDPR_Y16] was tested, and the phosphorylation enrichment was 0.716. Work on ACLSLYGGFVE [MVD_Y164_R161L] yielded a phosphorylation enrichment of 0.817. SENFTYIWWLN [PSG4_Y271_K267E_YF] showed a phosphorylation enrichment of 0.674. For CTTIHQNYMCN [TP53_Y234_Y234Q], the phosphorylation enrichment was 0.387. In the case of KWHREYNSKYV [RICTOR_Y835], the phosphorylation enrichment is reported as 0.32. In the case of SSEYHCVGGFY [CTSC_Y347_Y347C], the phosphorylation enrichment is reported as 0.64.

Each sequence was assayed against Hck (UniProt P08631) in the same assay as above.
Sequence of Hck (P08631 whole entry, looked up): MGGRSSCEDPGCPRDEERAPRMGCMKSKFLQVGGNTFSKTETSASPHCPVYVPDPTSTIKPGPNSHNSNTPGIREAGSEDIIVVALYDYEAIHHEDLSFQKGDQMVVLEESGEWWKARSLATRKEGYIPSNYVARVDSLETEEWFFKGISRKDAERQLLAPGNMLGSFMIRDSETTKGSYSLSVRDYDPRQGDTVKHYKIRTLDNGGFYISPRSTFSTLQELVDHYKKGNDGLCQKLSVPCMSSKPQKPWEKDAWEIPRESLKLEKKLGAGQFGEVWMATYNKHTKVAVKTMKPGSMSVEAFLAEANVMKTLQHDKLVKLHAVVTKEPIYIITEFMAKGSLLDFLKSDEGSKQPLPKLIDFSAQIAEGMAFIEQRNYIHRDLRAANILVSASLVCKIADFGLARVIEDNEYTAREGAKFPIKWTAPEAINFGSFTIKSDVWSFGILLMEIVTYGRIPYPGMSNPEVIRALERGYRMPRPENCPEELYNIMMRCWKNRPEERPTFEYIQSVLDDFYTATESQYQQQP
Work on KLGDVYVNDAF [PGK1_Y161] yielded a phosphorylation enrichment of 0.488. Sequence EFFDGYWEFSV [ITGA2B_Y265_G267E_YF] has a phosphorylation enrichment of 2.29. LKFAIYFEARE [LAMA2_Y1258_YF] gave a phosphorylation enrichment of 0.736. With NRLTDYYELLL [BBS10_Y536_P539L] the phosphorylation enrichment was 1.46. With WDLSEYSYKDP [ITGA3_Y237] the phosphorylation enrichment was 0.673. CTTIHYNFMCS [TP53_Y234_N239S_YF] gave a phosphorylation enrichment of 0.603. Sequence HGDDDYDDPEL [CLNK_Y69_S65G] has a phosphorylation enrichment of 0.743. Work on MSPPGYKLVNG [GJA1_Y286_T290N] yielded a phosphorylation enrichment of 0.448. PLDVEYFTLQI [TP53_Y327_G325V] showed a phosphorylation enrichment of 1.2. Work on DENRFYTRAAS [RPS19_Y54_W52R] yielded a phosphorylation enrichment of 0.466. Sequence SVVVPYEPHEV [TP53_Y220_P223H] has a phosphorylation enrichment of 0.577. In the case of LSSVSYVGCSL [ADGRD1_Y571_I569V], the phosphorylation enrichment is reported as 1.01. Work on LLVVLNKYRCY [PSEN1_Y154_Y154N] yielded a phosphorylation enrichment of 0.448. ALETLYKKAVK [CC2D2A_Y381_E376A] showed a phosphorylation enrichment of 0.396. With QITQVYGFFHE [PPP2CA_Y127_D131H_YF] the phosphorylation enrichment was 14.3. Sequence LEQQKYTVTVD [IKBKB_Y199] has a phosphorylation enrichment of 0.726. LTERSYSFVTT [ACTA1_Y200_G199S] showed a phosphorylation enrichment of 1.04. For EDKSIYRRGAR [PRKCI_Y125], the phosphorylation enrichment was 0.429. Work on FISLIYTNFEV [GSTP1_Y109_A114V_YF] yielded a phosphorylation enrichment of 2.7. PDDPNYSLVDD [PSTPIP2_Y323] showed a phosphorylation enrichment of 1.11. For PVQAAYQNVVA [HBB_Y131_K133N], the phosphorylation enrichment was 0.536. With CTTVHYNYMCN [TP53_Y234_I232V] the phosphorylation enrichment was 0.468. For QMVRMYASSYM [AVPR2_Y124_G122R], the phosphorylation enrichment was 0.621. In the case of FAELVYTSFWH [ASS1_Y322_G324S], the phosphorylation enrichment is reported as 7.37. APQFTYTQGGQ [FLNA_Y1763_A1764T_YF] showed a phosphorylation enrichment of 0.395. FASALYRQRRS [FGF11_Y162_YF] gave a phosphorylation enrichment of 0.546. EKSREYHRLYE [PIK3R1_Y463_D464H] showed a phosphorylation enrichment of 0.539. Work on RRVLVYGGRGA [QDPR_Y16] yielded a phosphorylation enrichment of 0.597. With ACLSLYGGFVE [MVD_Y164_R161L] the phosphorylation enrichment was 3.83. Work on SENFTYIWWLN [PSG4_Y271_K267E_YF] yielded a phosphorylation enrichment of 0.559. With CTTIHQNYMCN [TP53_Y234_Y234Q] the phosphorylation enrichment was 0.41. For KWHREYNSKYV [RICTOR_Y835], the phosphorylation enrichment was 0.371. For SSEYHCVGGFY [CTSC_Y347_Y347C], the phosphorylation enrichment was 1.72.
